Molecular target: human C4b binding protein (C4BP) (human) (UniProt P04003)
Experiment: BLI; Octet RED96; purified C4BP immobilised on amine-reactive (AR2G) sensor; P5 loop peptides 1.25-50 µM in PBS; 30°C; 1:1 binding fit

Chain of UniProt P04003 (P04003 49-597, chain 1 of 2): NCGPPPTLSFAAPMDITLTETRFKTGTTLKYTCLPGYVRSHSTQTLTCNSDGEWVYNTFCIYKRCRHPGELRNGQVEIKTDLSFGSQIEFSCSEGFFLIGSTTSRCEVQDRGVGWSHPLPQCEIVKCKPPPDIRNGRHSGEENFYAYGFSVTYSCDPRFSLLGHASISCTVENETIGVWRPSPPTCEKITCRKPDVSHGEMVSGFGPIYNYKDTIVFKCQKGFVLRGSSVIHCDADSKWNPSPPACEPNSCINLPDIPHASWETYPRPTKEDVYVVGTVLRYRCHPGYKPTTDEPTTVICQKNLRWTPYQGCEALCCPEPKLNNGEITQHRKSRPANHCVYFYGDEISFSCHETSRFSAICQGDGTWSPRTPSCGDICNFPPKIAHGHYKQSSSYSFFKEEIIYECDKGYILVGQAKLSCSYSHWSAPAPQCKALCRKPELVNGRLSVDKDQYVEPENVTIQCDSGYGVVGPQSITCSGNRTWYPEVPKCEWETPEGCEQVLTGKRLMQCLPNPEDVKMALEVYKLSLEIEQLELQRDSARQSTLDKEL
Chain of UniProt P04003 (P20851 18-252, chain 2 of 2, further chain): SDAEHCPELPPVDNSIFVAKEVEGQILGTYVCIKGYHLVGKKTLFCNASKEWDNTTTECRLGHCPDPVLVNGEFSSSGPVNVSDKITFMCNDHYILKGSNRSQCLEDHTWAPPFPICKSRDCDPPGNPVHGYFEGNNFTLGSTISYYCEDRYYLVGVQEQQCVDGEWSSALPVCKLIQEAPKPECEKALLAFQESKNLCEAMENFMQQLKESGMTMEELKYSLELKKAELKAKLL

Substance | Kd
synthetic peptide of outer surface loop 2 of P5 from NTHi KR271 | 73 µM
synthetic peptide of outer surface loop 2 of P5 from NTHi 3655 | 10 µM

From paper PMC8428749
